Test results taken from US20190032033A1.

Target: β1AR-84 (minimally thermostabilised turkey β1 adrenergic receptor construct) (turkey) (UniProt P07700)
Experiment: cell-based or functional assay

β1AR-84 (minimally thermostabilised turkey β1 adrenergic receptor construct) (turkey), sequence (P07700 other isoform, or with tags, fused parts or gaps): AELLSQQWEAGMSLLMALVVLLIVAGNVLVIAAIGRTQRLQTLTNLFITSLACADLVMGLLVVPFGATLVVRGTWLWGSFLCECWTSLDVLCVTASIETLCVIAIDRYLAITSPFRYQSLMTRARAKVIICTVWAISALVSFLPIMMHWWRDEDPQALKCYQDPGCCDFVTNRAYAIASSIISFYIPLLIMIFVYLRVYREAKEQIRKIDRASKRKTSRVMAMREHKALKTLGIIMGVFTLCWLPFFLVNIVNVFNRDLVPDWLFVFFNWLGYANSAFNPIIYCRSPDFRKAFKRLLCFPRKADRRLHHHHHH

Row | Substance | fold shift of isoprenaline Ki of β1AR-84 [fold] | isoprenaline Ki of DDM-solubilised β1AR-84 (alone […] µM) [µM] | isoprenaline Ki of β1AR-84, 20 °C (alone […] nM) [nM] | isoprenaline Ki of β1AR-84, 4 °C (alone […] nM) [nM] | isoprenaline Ki of β1AR-84 with 0.25 mM GTPγS (alone 3.0 µM) [nM]
1 | Gs-Nb35 (non-lipidated heterotrimeric Gs with nanobody Nb35) (from UniProt P62873 2-340; P59768 2-71) | 163 | 0.023 | 16 |  | 
2 | Nb80 (VHH) | 93 | 0.083 | 28 |  | 
3 | non-lipidated heterotrimeric Gs (Gαsβ1γ2) (from UniProt P62873 2-340; P59768 2-71) | 9.6 |  | 271 | 419 | 2700

Target: wild type A2AR in HEK293 cell membranes (UniProt P29274)
Experiment: cell-based or functional assay

wild type A2AR in HEK293 cell membranes, sequence (P29274 whole entry): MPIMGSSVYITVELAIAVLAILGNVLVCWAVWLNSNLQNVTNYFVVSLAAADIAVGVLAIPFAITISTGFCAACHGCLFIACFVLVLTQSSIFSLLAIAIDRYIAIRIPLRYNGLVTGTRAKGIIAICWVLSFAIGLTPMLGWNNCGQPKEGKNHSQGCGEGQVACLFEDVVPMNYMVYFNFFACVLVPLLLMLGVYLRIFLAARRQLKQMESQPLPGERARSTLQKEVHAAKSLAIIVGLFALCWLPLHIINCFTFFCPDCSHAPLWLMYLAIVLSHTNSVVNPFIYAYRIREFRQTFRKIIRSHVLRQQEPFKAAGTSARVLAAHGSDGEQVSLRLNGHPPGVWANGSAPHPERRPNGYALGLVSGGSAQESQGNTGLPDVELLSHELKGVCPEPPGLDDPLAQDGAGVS

Row | Substance | NECA Ki of A2AR in HEK293 membranes, 100 mM NaCl (alone 4.6 µM) [nM]
4 | Gs-Nb35 (non-lipidated heterotrimeric Gs with nanobody Nb35) (from UniProt P62873 2-340; P59768 2-71) | 340

Target: near wild type β1AR construct (β6) (UniProt P07700)
Experiment: cell-based or functional assay

near wild type β1AR construct (β6), sequence (P07700 33-424): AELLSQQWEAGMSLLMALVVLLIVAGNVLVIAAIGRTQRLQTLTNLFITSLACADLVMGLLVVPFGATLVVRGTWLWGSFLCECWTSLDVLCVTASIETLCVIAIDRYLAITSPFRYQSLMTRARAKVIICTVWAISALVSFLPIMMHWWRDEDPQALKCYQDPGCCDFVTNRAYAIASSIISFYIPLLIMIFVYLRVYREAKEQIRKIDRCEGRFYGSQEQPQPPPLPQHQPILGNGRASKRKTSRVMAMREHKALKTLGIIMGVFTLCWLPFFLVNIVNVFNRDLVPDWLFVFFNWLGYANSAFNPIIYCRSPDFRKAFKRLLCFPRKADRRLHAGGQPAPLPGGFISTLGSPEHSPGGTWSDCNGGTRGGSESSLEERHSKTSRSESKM

Row | Substance | fold increase of isoprenaline affinity of the near wild-type β1AR [fold] | isoprenaline IC50 of β6 (alone […] nM) [nM]
5 | Nb80 (VHH) | 3.5 | 51

Target: β1AR-WT (wild type-like turkey β1 adrenergic receptor construct) (turkey) (UniProt P07700)
Experiment: cell-based or functional assay

β1AR-WT (wild type-like turkey β1 adrenergic receptor construct) (turkey), sequence (P07700 other isoform, or with tags, fused parts or gaps limits assumed): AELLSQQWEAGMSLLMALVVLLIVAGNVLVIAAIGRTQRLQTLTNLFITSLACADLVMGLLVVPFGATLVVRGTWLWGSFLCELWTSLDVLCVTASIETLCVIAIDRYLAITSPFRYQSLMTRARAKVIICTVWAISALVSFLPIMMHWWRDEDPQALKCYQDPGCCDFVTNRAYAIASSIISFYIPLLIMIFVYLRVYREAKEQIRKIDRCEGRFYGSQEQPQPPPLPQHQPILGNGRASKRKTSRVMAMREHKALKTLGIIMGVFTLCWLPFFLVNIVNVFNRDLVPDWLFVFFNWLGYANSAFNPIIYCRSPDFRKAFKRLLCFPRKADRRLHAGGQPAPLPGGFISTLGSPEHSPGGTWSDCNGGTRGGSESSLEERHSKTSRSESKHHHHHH

Row | Substance | apparent Tm of β1AR-WT complex in DDM (receptor alone 25.9 °C) [°C] | apparent Tm of β1AR-WT complex in decylmaltoside (receptor alone 20.4 °C) [°C] | apparent Tm of β1AR-WT complex in nonylglucoside (uncoupled receptor did not survive) [°C] | apparent Tm of β1AR-WT complex in octylglucoside (uncoupled receptor did not survive) [°C] | fold shift of isoprenaline Ki of β1AR-WT [fold] | isoprenaline Ki of membrane-embedded β1AR-WT (alone 40 nM) [nM] | norepinephrine Ki of β1AR-WT (alone 158 nM) [nM]
6 | Gs-Nb35 (non-lipidated heterotrimeric Gs with nanobody Nb35) (from UniProt P62873 2-340; P59768 2-71) | 35.8 | 31.1 | 19 | 13.6 | 5.9 | 6.8 | 0.36
7 | Nb80 (VHH) | 32 | 28.6 | 16.7 | 14.3 | 6.9 | 5.8 | 0.7
8 | non-lipidated heterotrimeric Gs (Gαsβ1γ2) (from UniProt P62873 2-340; P59768 2-71) |  |  |  |  | 2.4 | 17 | 

Target: β84 (minimally thermostabilised β1AR construct of Example 2) (UniProt P07700)
Experiment: cell-based or functional assay

Row | Substance | isoprenaline IC50 of β84, 20 °C (alone […] µM) [µM] | isoprenaline IC50 of β84 (alone […] µM) [µM] | isoprenaline IC50 of β84, 4 °C [nM] | isoprenaline IC50 of β84, 20 °C [nM] | isoprenaline IC50 of β84, 4 °C (alone […] µM) [µM]
9 | GTPase domain with βγ-dimer and Nb35 (from UniProt P62873 2-340; P59768 2-71) | 0.206 |  |  |  | 
10 | Gs-Nb35 (non-lipidated heterotrimeric Gs with nanobody Nb35) (from UniProt P62873 2-340; P59768 2-71) |  | 0.068 |  |  | 
11 | Gαs GTPase domain A48D (from UniProt P63092 45-394) |  |  | 185 | 1800 | 
12 | Gαs GTPase domain A249D (from UniProt P63092 45-394) |  |  | 15 | 53 | 
13 | Gαs GTPase domain A249E (from UniProt P63092 45-394) |  |  | 104 | 582 | 
14 | Gαs GTPase domain A249S (from UniProt P63092 45-394) |  |  | 146 | 1600 | 
15 | Gαs GTPase domain C237E (from UniProt P63092 45-394) |  |  | 93 | 1900 | 
16 | Gαs GTPase domain D240G (from UniProt P63092 45-394) |  |  | 510 | 4400 | 
17 | Gαs GTPase domain D295N (from UniProt P63092 45-394) |  |  | 2400 |  | 
18 | Gαs GTPase domain E50N (from UniProt P63092 45-394) |  |  | 55 | 1100 | 
19 | Gαs GTPase domain F208N (from UniProt P63092 45-394) |  |  | 250 | 1300 | 
20 | Gαs GTPase domain G49D (from UniProt P63092 45-394) |  |  | 37 | 428 | 
21 | Gαs GTPase domain G49D/E50N (from UniProt P63092 45-394) |  |  | 44 | 364 | 
22 | Gαs GTPase domain G226A (from UniProt P63092 45-394) |  |  | 127 | 1200 | 
23 | Gαs GTPase domain H41I (from UniProt P63092 45-394) |  |  | 58 | 589 | 
24 | Gαs GTPase domain H41L (from UniProt P63092 45-394) |  |  | 285 | 3900 | 
25 | Gαs GTPase domain H41M (from UniProt P63092 45-394) |  |  | 307 | 1800 | 
26 | Gαs GTPase domain H41V (from UniProt P63092 45-394) |  |  | 77 | 737 | 
27 | Gαs GTPase domain L270N/I348N (from UniProt P63092 45-394) |  |  | 4300 |  | 
28 | Gαs GTPase domain L272D (from UniProt P63092 45-394) |  |  | 10 | 464 | 
29 | Gαs GTPase domain L272E (from UniProt P63092 45-394) |  |  | 42 | 110 | 
30 | Gαs GTPase domain N279D/Q235K (from UniProt P63092 45-394) |  |  | 102 | 2000 | 
31 | Gαs GTPase domain N279E/I235K (from UniProt P63092 45-394) |  |  | 1200 | 2800 | 
32 | Gαs GTPase domain R199D (from UniProt P63092 45-394) |  |  | 109 | 1800 | 

Row | Substance | isoprenaline IC50 of β84, 20 °C (alone […] µM) [µM] | isoprenaline IC50 of β84 (alone […] µM) [µM] | isoprenaline IC50 of β84, 4 °C [nM] | isoprenaline IC50 of β84, 20 °C [nM] | isoprenaline IC50 of β84, 4 °C (alone […] µM) [µM]
33 | Gαs GTPase domain R199K (from UniProt P63092 45-394) |  |  | 108 | 1900 | 
34 | Gαs GTPase domain R201A (from UniProt P63092 45-394) |  |  | 46 | 2200 | 
35 | Gαs GTPase domain R356D (from UniProt P63092 45-394) |  |  | 161 | 3300 | 
36 | Gαs GTPase domain R356S (from UniProt P63092 45-394) |  |  | 229 | 2800 | 
37 | Gαs GTPase domain S54N (from UniProt P63092 45-394) |  |  | 462 |  | 
38 | Gαs GTPase domain S252D (from UniProt P63092 45-394) |  |  | 21 | 142 | 
39 | Gαs GTPase domain S252E (from UniProt P63092 45-394) |  |  | 57 | 575 | 
40 | Gαs GTPase domain S275D (from UniProt P63092 45-394) |  |  | 136 | 2000 | 
41 | Gαs GTPase domain S286C/I382C (from UniProt P63092 45-394) |  |  | 4200 | 7000 | 
42 | Gαs GTPase domain V36D/N218K (from UniProt P63092 45-394) |  |  | 115 |  | 
43 | Gαs GTPase domain V36D/N218K/T40A (from UniProt P63092 45-394) |  |  | 551 | 2400 | 
44 | Gαs GTPase domain V36D/N218K/T40D (from UniProt P63092 45-394) |  |  | 427 | 3200 | 
45 | Gαs GTPase domain W234A/F238A (from UniProt P63092 45-394) |  |  | 584 | 4000 | 
46 | Gαs GTPase domain Y37D (from UniProt P63092 45-394) |  |  | 81 | 2000 | 
47 | Gαs GTPase domain Y37R/R42D (from UniProt P63092 45-394) |  |  | 2300 |  | 
48 | Gαs GTPase domain parental construct (Example 2) (from UniProt P63092 45-394) |  |  | 136 |  | 
49 | Gαs GTPase domain Δ227-230/GG linker |  |  | 34 | 799 | 
50 | Gαs GTPase domain Δ254-263 |  |  | 31 | 30 | 
51 | Gαs GTPase domain Δ254-263/Y253P |  |  | 23 | 142 | 
52 | Gαs GTPase domain Δ255-262/G linker |  |  | 1300 |  | 
53 | Nb80 (VHH) |  | 0.016 |  |  | 
54 | isolated GTPase domain of Gαs (Example 2, FIG. 14) | 3.4 |  |  |  | 0.253
55 | non-lipidated heterotrimeric Gs (Gαsβ1γ2) (from UniProt P62873 2-340; P59768 2-71) |  | 1.4 |  |  | 
